Consider five molecules from publication PMC6278910, “Reduced structural flexibility for an exonuclease deficient DNA polymerase III mutant†”.

Series [1] has as its target T1, Pol III alpha (clamp-binding enhanced; called wild type);Pol III epsilon exonuclease (clamp-binding … (Escherichia coli;Escherichia …, UniProt P10443;P03007;P0ABS8;P0A988 1-1160;1-243;1-76;1-366, A921L;M923L|T183L;M185L;A186P;F187L|E41C|). The series is described as follows: smFRET; dCTP, Mg2+; kon,fast 0.8±0.1, kon,slow 0.030±0.010, koff 0.20±0.01 s-1 (25 nM enzyme); 20 mM Hepes pH 7.6, 5 mM potassium glutamate, 3 mM magnesium acetate, 2 mM DTT, 2 mM Trolox, 25 nM enzyme, 10 uM dCTP; temperature not stated. PIFE with unlabeled Pol III alpha or alpha-epsilon at 25 nM showed no binding (DNA not specified, not listed). To be noted: protein: recombinant;recombinant;recombinant;recombinant, (HisTrap purification), Cy5 maleimide at C41;, copies: 1;1;1;2, label: 5' biotin-TEG and Cy3 (amino dT-C6) on template, 7 nt upstream from primer 3' terminus, 5' overhang 14 nt on template, matched G:ddC terminus.

The target of series [2] is T2, Pol III alpha Y453A (clamp-binding enhanced);Pol III epsilon exonuclease (clamp-binding enhanced);Pol III … (Escherichia coli;Escherichia …, UniProt P10443;P03007;P0ABS8;P0A988 1-1160;1-243;1-76;1-366, Y453A;A921L;M923L|T183L;M185L;A186P;F187L|E41C|). The series can be described thus: smFRET; dCTP, Mg2+; kon,fast 0.7±0.1, kon,slow 0.05±0.01, koff 0.40±0.02 s-1; 20 mM Hepes pH 7.6, 5 mM potassium glutamate, 3 mM magnesium acetate, 2 mM DTT, 2 mM Trolox, 25 nM enzyme, 10 uM dCTP; temperature not stated. PIFE with unlabeled Pol III alpha or alpha-epsilon at 25 nM showed no binding (DNA not specified, not listed). To be noted: protein: recombinant;recombinant;recombinant;recombinant, (HisTrap purification), Cy5 maleimide at C41;, copies: 1;1;1;2, label: 5' biotin-TEG and Cy3 (amino dT-C6) on template, 7 nt upstream from primer 3' terminus, 5' overhang 14 nt on template, matched G:ddC terminus.

Series [3] concerns the target T2, Pol III alpha Y453A (clamp-binding …). The series can be described thus: smFRET; dCTP, Mg2+; kon,fast 1.5±0.3, kon,slow 0.04±0.01, koff 0.30±0.02 s-1; 20 mM Hepes pH 7.6, 5 mM potassium glutamate, 3 mM magnesium acetate, 2 mM DTT, 2 mM Trolox, 25 nM enzyme, 10 uM dCTP; temperature not stated. PIFE with unlabeled Pol III alpha or alpha-epsilon at 25 nM showed no binding (DNA not specified, not listed). To be noted: protein: recombinant;recombinant;recombinant;recombinant, (HisTrap purification), Cy5 maleimide at C41;, copies: 1;1;1;2, label: 5' biotin-TEG and Cy3 (amino dT-C6) on template, 7 nt upstream from primer 3' terminus, 5' overhang 14 nt on template, terminal G:A mismatch.

In series [4] the target is T1, Pol III alpha (clamp-binding enhanced; …). The series can be described thus: smFRET; dCTP, Mg2+; kon,fast 0.3±0.1, kon,slow 0.020±0.002, koff 0.20±0.01 s-1; 20 mM Hepes pH 7.6, 5 mM potassium glutamate, 3 mM magnesium acetate, 2 mM DTT, 2 mM Trolox, 25 nM enzyme, 10 uM dCTP; temperature not stated. PIFE with unlabeled Pol III alpha or alpha-epsilon at 25 nM showed no binding (DNA not specified, not listed). To be noted: protein: recombinant;recombinant;recombinant;recombinant, (HisTrap purification), Cy5 maleimide at C41;, copies: 1;1;1;2, label: 5' biotin-TEG and Cy3 (amino dT-C6) on template, 7 nt upstream from primer 3' terminus, 5' overhang 14 nt on template, terminal G:A mismatch.

Series [5] shares this target. The series is described as follows: smFRET; dCTP, Mg2+; kon,fast 0.6±0.1, kon,slow 0.010±0.003, koff 0.20±0.01 s-1; 20 mM Hepes pH 7.6, 5 mM potassium glutamate, 3 mM magnesium acetate, 2 mM DTT, 2 mM Trolox, 25 nM enzyme, 10 uM dCTP; temperature not stated. PIFE with unlabeled Pol III alpha or alpha-epsilon at 25 nM showed no binding (DNA not specified, not listed). To be noted: protein: recombinant;recombinant;recombinant;recombinant, (HisTrap purification), Cy5 maleimide at C41;, copies: 1;1;1;2, label: 5' biotin-TEG and Cy3 (amino dT-C6) on template, 7 nt upstream from primer 3' terminus, 5' overhang 14 nt on template, terminal G:T mismatch.

For series [6], the target named is T2, Pol III alpha Y453A (clamp-binding …). The series is described as follows: smFRET; dCTP, Mg2+; kon,fast 0.6±0.1, kon,slow 0.05±0.01, koff 0.30±0.01 s-1; 20 mM Hepes pH 7.6, 5 mM potassium glutamate, 3 mM magnesium acetate, 2 mM DTT, 2 mM Trolox, 25 nM enzyme, 10 uM dCTP; temperature not stated. PIFE with unlabeled Pol III alpha or alpha-epsilon at 25 nM showed no binding (DNA not specified, not listed). To be noted: protein: recombinant;recombinant;recombinant;recombinant, (HisTrap purification), Cy5 maleimide at C41;, copies: 1;1;1;2, label: 5' biotin-TEG and Cy3 (amino dT-C6) on template, 7 nt upstream from primer 3' terminus, 5' overhang 14 nt on template, terminal G:T mismatch.

For series [7], the target named is T1, Pol III alpha (clamp-binding enhanced; …). The series is described as follows: smFRET; dCTP, Mg2+; kon N.D., koff 0.30±0.02 s-1; 20 mM Hepes pH 7.6, 5 mM potassium glutamate, 3 mM magnesium acetate, 2 mM DTT, 2 mM Trolox, 25 nM enzyme, 10 uM dCTP; temperature not stated. PIFE with unlabeled Pol III alpha or alpha-epsilon at 25 nM showed no binding (DNA not specified, not listed). To be noted: protein: recombinant;recombinant;recombinant;recombinant, (HisTrap purification), Cy5 maleimide at C41;, copies: 1;1;1;2, label: 5' biotin-TEG and Cy3 (amino dT-C6) on template, 7 nt upstream from primer 3' terminus, 5' overhang 14 nt on template, terminal double mismatch.

The target of series [8] is T2, Pol III alpha Y453A (clamp-binding …). Described as above. To be noted: protein: recombinant;recombinant;recombinant;recombinant, (HisTrap purification), Cy5 maleimide at C41;, copies: 1;1;1;2, label: 5' biotin-TEG and Cy3 (amino dT-C6) on template, 7 nt upstream from primer 3' terminus, 5' overhang 14 nt on template, terminal double mismatch.
The target in series [9] is T1, Pol III alpha (clamp-binding enhanced; …). The series is described as follows: smFRET; non-hydrolyzable dCTP analog, Mg2+; kon,fast 0.6±0.1, kon,slow 0.020±0.007, koff 0.20±0.01 s-1; 20 mM Hepes pH 7.6, 5 mM potassium glutamate, 3 mM magnesium acetate, 2 mM DTT, 2 mM Trolox, 25 nM enzyme, 10 uM dCTP; temperature not stated. PIFE with unlabeled Pol III alpha or alpha-epsilon at 25 nM showed no binding (DNA not specified, not listed). To be noted: protein: recombinant;recombinant;recombinant;recombinant, (HisTrap purification), Cy5 maleimide at C41;, copies: 1;1;1;2, label: 5' biotin-TEG and Cy3 (amino dT-C6) on template, 7 nt upstream from primer 3' terminus, 5' overhang 14 nt on template, matched G:C terminus.

For series [10], the target named is T2, Pol III alpha Y453A (clamp-binding …). The series can be described thus: smFRET; non-hydrolyzable dCTP analog (stated for wild type), Mg2+; kon,fast 0.8±0.1, kon,slow 0.04±0.01, koff 0.30±0.01 s-1; 20 mM Hepes pH 7.6, 5 mM potassium glutamate, 3 mM magnesium acetate, 2 mM DTT, 2 mM Trolox, 25 nM enzyme, 10 uM dCTP; temperature not stated. PIFE with unlabeled Pol III alpha or alpha-epsilon at 25 nM showed no binding (DNA not specified, not listed). To be noted: protein: recombinant;recombinant;recombinant;recombinant, (HisTrap purification), Cy5 maleimide at C41;, copies: 1;1;1;2, label: 5' biotin-TEG and Cy3 (amino dT-C6) on template, 7 nt upstream from primer 3' terminus, 5' overhang 14 nt on template, matched G:C terminus.

B1: G:ddC (dsDNA)
DNA 1: CATAATATCCTCAGGAGTCCTTCGTCCTAGTACTACTCA
DNA 2: TGAGTAGTACTAGGACGAAGGACTC
modifications: 3' dideoxycytosine on primer
In the case of B1, the binding result in series [1] and in series [2] was “binds” each time.

B2: G:A (dsDNA)
DNA 1: B1 DNA 1
DNA 2: TGAGTAGTACTAGGACGAAGGACTA
modifications: phosphorothioate in primer (position not given)
Consider B2, for which the binding result in [3] and in [4] was “binds” in each case.

B3: G:T (dsDNA)
DNA 1: B1 DNA 1
DNA 2: TGAGTAGTACTAGGACGAAGGACTT
modifications: phosphorothioate in primer (position not given)
As for B3, the binding result in series [5] and in series [6] was “binds” each time.

B4: G:AA (dsDNA)
DNA 1: B1 DNA 1
DNA 2: TGAGTAGTACTAGGACGAAGGACAA
modifications: phosphorothioate not stated for this DNA
For B4, the binding result in series [7] and in series [8] was “binds” in each case.

B5: G:C (dsDNA)
DNA 1: B1 DNA 1
DNA 2: TGAGTAGTACTAGGACGAAGGACTC
Regarding B5, the binding result in series [9] and in series [10] was “binds” each time.
